Experimental data as given in US20220002423A1 (GENERAL HOSPITAL, published 2022).

Columns and labels:
[1] = target: T1, Amino acid residues 9-28 of human TNFR2 (human); experiment: ELISA on TNFR2 peptide fragment; categorical score, 0 lowest to 4 highest affinity
T1 peptide: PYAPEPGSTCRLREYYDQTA

[2] = target: T2, Amino acid residues 162-181 of human TNFR2 (human); experiment: as above
T2 peptide: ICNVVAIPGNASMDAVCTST

[3] = target: T3, Amino acid residues 58-77 of human TNFR2 (human); experiment: as above
T3 peptide: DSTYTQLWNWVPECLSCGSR

[4] = target: T4, Amino acid residues 66-85 of human TNFR2 (human); experiment: as above
T4 peptide: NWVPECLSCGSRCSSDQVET

[5] = target: T5, Amino acid residues 1-20 of human TNFR2 (human); experiment: as above
T5 construct: 20-mer fragment
T5 peptide: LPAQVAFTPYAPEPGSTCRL

[6] = target: T6, Amino acid residues 82-101 of human TNFR2 (human); experiment: as above
T6 peptide: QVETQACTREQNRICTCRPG

[7] = target: T7, Amino acid residues 74-93 of human TNFR2 (human); experiment: as above
T7 peptide: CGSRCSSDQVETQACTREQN

[8] = target: T8, Amino acid residues 122-141 of human TNFR2 (human); experiment: as above
T8 peptide: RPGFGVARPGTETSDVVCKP

[9] = target: T9, Amino acid residues 42-61 of human TNFR2 (human); experiment: as above
T9 peptide: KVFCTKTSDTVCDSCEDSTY

[10] = target: T10, Amino acid residues 50-69 of human TNFR2 (human); experiment: as above
T10 peptide: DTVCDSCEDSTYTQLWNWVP

[11] = target: T11, Amino acid residues 170-189 of human TNFR2 (human); experiment: as above
T11 peptide: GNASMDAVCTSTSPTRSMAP

[12] = target: T12, Amino acid residues 138-157 of human TNFR2 (human); experiment: as above
T12 peptide: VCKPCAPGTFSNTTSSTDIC

[13] = target: T13, Amino acid residues 17-36 of human TNFR2 (human); experiment: as above
T13 peptide: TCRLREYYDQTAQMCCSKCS

[14] = target: T14, Amino acid residues 114-133 of human TNFR2 (human); experiment: as above
T14 peptide: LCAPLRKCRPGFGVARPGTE

[15] = target: T15, Amino acid residues 154-174 of human TNFR2 (human); experiment: as above
T15 peptide: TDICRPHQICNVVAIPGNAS

[16] = target: T16, Amino acid residues 90-109 of human TNFR2 (human); experiment: as above
T16 peptide: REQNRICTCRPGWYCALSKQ

[17] = target: T17, Amino acid residues 146-165 of human TNFR2 (human); experiment: as above
T17 peptide: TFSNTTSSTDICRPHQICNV

[18] = target: T1, Amino acid residues 9-28 of human TNFR2; experiment: ELISA, antibody alone
[19] = target: T3, Amino acid residues 58-77 of human TNFR2; experiment: ELISA, antibody alone
[20] = target: T4, Amino acid residues 66-85 of human TNFR2; experiment: ELISA, antibody alone
[21] = target: T6, Amino acid residues 82-101 of human …; experiment: ELISA, antibody alone
[22] = target: T7, Amino acid residues 74-93 of human TNFR2; experiment: ELISA, antibody alone
[23] = target: T18, TNFR2, hTNFR2 (23-207), 20kD (human, UniProt P20333); experiment: ELISA, antibody alone
T18 construct: fragment 23-207, 20kD (so in the source)
T18 sequence (receptor fragment, looked up): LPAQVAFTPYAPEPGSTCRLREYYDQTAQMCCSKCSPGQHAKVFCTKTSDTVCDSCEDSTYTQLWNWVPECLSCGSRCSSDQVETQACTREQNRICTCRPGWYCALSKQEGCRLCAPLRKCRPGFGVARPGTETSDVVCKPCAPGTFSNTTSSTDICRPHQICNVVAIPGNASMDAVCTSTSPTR

[24] = target: T9, Amino acid residues 42-61 of human TNFR2; experiment: ELISA, antibody alone
[25] = target: T10, Amino acid residues 50-69 of human TNFR2; experiment: ELISA, antibody alone
[26] = target: T11, Amino acid residues 170-189 of human …; experiment: ELISA, antibody alone
[27] = target: T13, Amino acid residues 17-36 of human TNFR2; experiment: ELISA, antibody alone
[28] = target: T16, Amino acid residues 90-109 of human …; experiment: ELISA, antibody alone

B1: agonistic TNFR2 antibody TNFRAG1 (antibody, V domains shown)
VH: EVQLQQFGAELVKPGASVKISCKASGYTFTDYNIDWVKQSHGKSLEWIGDINPNYDSTSYSQKFRGKATLTVDKSSSTAYMELRSLTSEDTAVYYCARGNSWYFDVWGAGTTVTVSS
VL: QIVLTQSPALMSASPGEKVTMTCSASSSVRYMYWYQQKPRSSPKPWIYLTSNLASGVPARFSGSGSGTSYSLTISSMEAEDAATYYCQQWSSNPLTFGAGTKLELK
notes: the primary antibodies were detected with secondary antibodies against rodent IgG; also called monoclonal TNFR2 antibody TNFRAG1; TNFR2 agonist antibody
0: Affinity Score [1] | Affinity Score [2] | Affinity Score [3] | Affinity Score [4] | Affinity Score [5] | Affinity Score [6] | Affinity Score [7] | Affinity Score [8] | Affinity Score [9] | Affinity Score [10] | Affinity Score [11] | Affinity Score [12] | Affinity Score [13] | Affinity Score [14] | Affinity Score [15] | Affinity Score [17]
2: Affinity Score [16] | Reading [20] | Reading [21] | Reading [22] | Reading [28]
no binding: binding result [18] | binding result [19] | binding result [24] | binding result [25] | binding result [26] | binding result [27]
1.2: Reading [23]
